Measurements: the supplement of paper PMC10724198
± gives the standard deviation of the averaged measurements.

Experiments:
Saccharomyces cerevisiae [1] = experiment: protein stability index of tFT-peptide fusion (C-terminal peptide) (PSI (0-1 scale)); higher = more stable (slower turnover); settings: genetic background: wild type; temperature: 30 C
Saccharomyces cerevisiae [2] = experiment: as above
Protocol: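 MPS profiling in S. cerevisiae of the tFT-X12 degron library: putative degron peptides plus stable controls, 12 aa, fused to the C-terminus of a sfGFP-mCherry timer. Cells are FACS-sorted into 8 mCherry/sfGFP bins and deep-sequenced. PSI runs from 0 (unstable) to 1 (stable). Backgrounds are wild type, das1Δ and doa10Δ at 30 °C, and wild type, das1Δ, cdc34-1 and cdc53-1 at 37 °C; 2-3 technical replicates each.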

[3] = genetic background: cdc34-1, temperature: 37 C
[4] = genetic background: cdc53-1, temperature: 37 C
[5] = genetic background: das1 deletion, temperature: 30 C
[6] = genetic background: das1 deletion, temperature: 37 C
[7] = genetic background: doa10 deletion, temperature: 30 C
[8] = genetic background: wild type, temperature: 30 C
[9] = genetic background: wild type, temperature: 37 C
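Further: PSI is a weighted mean of sequencing reads over stability bins, variants kept only with over 10 reads, mCherry proximal and sfGFP distal, peptide attached via GGGS linker.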

Sequence | protein stability index (Saccharomyces cerevisiae [1]) | protein stability index (Saccharomyces cerevisiae [2]; [3]) | protein stability index (Saccharomyces cerevisiae [2]; [4]) | protein stability index (Saccharomyces cerevisiae [2]; [5]) | protein stability index (Saccharomyces cerevisiae [2]; [6]) | protein stability index (Saccharomyces cerevisiae [2]; [7]) | protein stability index (Saccharomyces cerevisiae [2]; [8]) | protein stability index (Saccharomyces cerevisiae [2]; [9])
RWRYHAYVITIL | 0.138 ± 0.045 | 0.334 ± 0.02 | 0.4158 ± 0.0037 | 0.392 ± 0.02 | 0.506 ± 0.0054 | 0.118 ± 0.0098 | 0.0812 ± 0.025 | 0.0987 ± 0.0088
RYKIEKKKLMNN | 0.42 ± 0.038 | 0.667 ± 0.019 | 0.741 ± 0.18 | 0.602 ± 0.01 | 0.7361 ± 0.003 | 0.182 ± 0.0036 | 0.235 ± 0.035 | 0.448 ± 0.048
SEVMVGLRLTLN | 0.416 ± 0.038 | 0.67 ± 0.051 | 0.728 ± 0.018 | 0.628 ± 0.033 | 0.7149 ± 0.0029 | 0.282 ± 0.0065 | 0.318 ± 0.03 | 0.545 ± 0.029
SFRIWLFRFFFV | 0.407 ± 0.018 | 0.6 ± 0.034 | 0.669 ± 0.034 | 0.555 ± 0.047 | 0.651 ± 0.008 | 0.364 ± 0.025 | 0.372 ± 0.016 | 0.541 ± 0.032
SFSFCCLLASFV | 0.44 ± 0.044 | 0.605 ± 0.015 | 0.6186 ± 0.006 | 0.484 ± 0.028 | 0.617 ± 0.014 | 0.444 ± 0.025 | 0.461 ± 0.015 | 0.603 ± 0.013
SFSIPILLLAFP | 0.425 ± 0.006 | 0.264 ± 0.018 | 0.2229 ± 0.00014 | 0.311 ± 0.022 | 0.409 ± 0.011 | 0.451 ± 0.026 | 0.314 ± 0.021 | 0.3719 ± 0.0017
SFYAGLVVGGVG | 0.528 ± 0.053 | 0.582 ± 0.038 | 0.616 ± 0.014 | 0.508 ± 0.026 | 0.6 ± 0.0064 | 0.525 ± 0.001 | 0.5 ± 0.018 | 0.5813 ± 0.0037
SGLVAFSVCCRG | 0.433 ± 0.021 | 0.4091 ± 0.00089 | 0.449 ± 0.036 | 0.301 ± 0.039 | 0.5177 ± 0.0048 | 0.2625 ± 0.0015 | 0.308 ± 0.02 | 0.4862 ± 0.0037
SGLVHVLILGAC | 0.45 ± 0.0019 | 0.4899 ± 0.0043 | 0.5165 ± 0.0038 | 0.347 ± 0.038 | 0.5529 ± 0.0051 | 0.313 ± 0.0048 | 0.338 ± 0.033 | 0.506 ± 0.011
SGRGFSFVLCTV | 0.4119 ± 2.1e-05 | 0.539 ± 0.039 | 0.599 ± 0.013 | 0.339 ± 0.035 | 0.58 ± 0.017 | 0.307 ± 0.013 | 0.339 ± 0.025 | 0.58 ± 0.015
SGRKNQRILGLY | 0.301 ± 0.055 | 0.656 ± 0.1 | 0.7334 ± 0.0067 | 0.6488 ± 0.0054 | 0.731 ± 0.023 | 0.199 ± 0.029 | 0.221 ± 0.038 | 0.497 ± 0.011
SLAPPPPLLILR | 0.335 ± 0.022 | 0.403 ± 0.049 | 0.325 ± 0.015 | 0.345 ± 0.021 | 0.479 ± 0.049 | 0.605 ± 0.0019 | 0.348 ± 0.025 | 0.4471 ± 0.0029
SLARPGLCFVIA | 0.417 ± 0.034 | 0.534 ± 0.002 | 0.583 ± 0.018 | 0.356 ± 0.029 | 0.569 ± 0.011 | 0.311 ± 0.019 | 0.342 ± 0.026 | 0.543 ± 0.029
SLASPPPLLILR | 0.346 ± 0.023 | 0.372 ± 0.057 | 0.342 ± 0.023 | 0.326 ± 0.032 | 0.436 ± 0.038 | 0.60698 ± 1.5e-05 | 0.354 ± 0.0056 | 0.434 ± 0.01
SLFFCIPIHSVF | 0.461 ± 0.014 | 0.606 ± 0.046 | 0.585 ± 0.0079 | 0.491 ± 0.014 | 0.5855 ± 0.0036 | 0.398 ± 0.012 | 0.423 ± 0.021 | 0.524 ± 0.013
SLIVLRSIAVLD | 0.449 ± 0.012 | 0.484 ± 0.015 | 0.505 ± 0.027 | 0.39 ± 0.02 | 0.543 ± 0.038 | 0.3743 ± 0.0022 | 0.392 ± 0.025 | 0.518 ± 0.013
SLRYRFLSFFFL | 0.282 ± 0.026 | 0.615 ± 0.038 | 0.72 ± 0.018 | 0.636 ± 0.055 | 0.7089 ± 0.0057 | 0.189 ± 0.015 | 0.208 ± 0.019 | 0.338 ± 0.023
SLSFLRPLLLIF | 0.102 ± 0.012 | 0.0444 ± 0.014 | 0.0385 ± 0.012 | 0.12 ± 0.028 | 0.118 ± 0.0077 | 0.131 ± 0.0095 | 0.0702 ± 0.013 | 0.0953 ± 0.019
SLTNYQRLIHVC | 0.258 ± 0.13 | 0.147 ± 0.037 | 0.245 ± 0.064 | 0.223 ± 0.031 | 0.361 ± 0.014 | 0.0969 ± 0.0057 | 0.126 ± 0.036 | 0.0936 ± 0.0094
SLVLLVASVTGS | 0.464 ± 0.016 | 0.507 ± 0.0053 | 0.546 ± 0.013 | 0.385 ± 0.024 | 0.5781 ± 0.0054 | 0.347 ± 0.01 | 0.384 ± 0.03 | 0.553 ± 0.017

Sequence | protein stability index (Saccharomyces cerevisiae [1]) | protein stability index (Saccharomyces cerevisiae [2]; [3]) | protein stability index (Saccharomyces cerevisiae [2]; [4]) | protein stability index (Saccharomyces cerevisiae [2]; [5]) | protein stability index (Saccharomyces cerevisiae [2]; [6]) | protein stability index (Saccharomyces cerevisiae [2]; [7]) | protein stability index (Saccharomyces cerevisiae [2]; [8]) | protein stability index (Saccharomyces cerevisiae [2]; [9])
SMFFLFFFFFFF | 0.36 ± 0.04 | 0.396 ± 0.0071 | 0.356 ± 0.018 | 0.35 ± 0.042 | 0.444 ± 0.034 | 0.432 ± 0.028 | 0.328 ± 0.017 | 0.4177 ± 0.0027
SNFQLLPLFKNI | 0.39 ± 0.032 | 0.791 ± 0.12 | 0.789 ± 0.0083 | 0.651 ± 0.044 | 0.799 ± 0.027 | 0.182 ± 0.0062 | 0.216 ± 0.041 | 0.546 ± 0.056
SPRGVVIAFLVC | 0.129 ± 0.057 | 0.425 ± 0.016 | 0.569 ± 0.089 | 0.356 ± 0.028 | 0.5766 ± 0.0025 | 0.11 ± 0.014 | 0.124 ± 0.025 | 0.109 ± 0.0082
SQIALIQYFHIL | 0.101 ± 0.06 | 0.408 ± 0.02 | 0.655 ± 0.017 | 0.594 ± 0.015 | 0.704 ± 0.016 | 0.0937 ± 0.022 | 0.1 ± 0.017 | 0.202 ± 0.029
SQVILFFLSLCR | 0.552 ± 0.08 | 0.607 ± 0.024 | 0.654 ± 0.011 | 0.494 ± 0.024 | 0.619 ± 0.0082 | 0.485 ± 0.011 | 0.4977 ± 0.0029 | 0.61 ± 0.022
SRICRTIIQLKQ | 0.168 ± 0.0027 | 0.561 ± 0.025 | 0.681 ± 0.013 | 0.626 ± 0.029 | 0.689 ± 0.033 | 0.107 ± 0.0018 | 0.121 ± 0.022 | 0.266 ± 0.004
SRLVSRLGLYLS | 0.361 ± 0.02 | 0.656 ± 0.054 | 0.71 ± 0.0097 | 0.626 ± 0.013 | 0.728 ± 0.035 | 0.214 ± 0.0099 | 0.22 ± 0.022 | 0.475 ± 0.03
SRRRRLVSKFLA | 0.223 ± 0.017 | 0.63 ± 0.043 | 0.7 ± 0.042 | 0.653 ± 0.027 | 0.729 ± 0.03 | 0.141 ± 0.019 | 0.161 ± 0.0082 | 0.3 ± 0.0063
SRRSIGAYLFVS | 0.339 ± 0.026 | 0.693 ± 0.053 | 0.761 ± 0.029 | 0.635 ± 0.039 | 0.768 ± 0.031 | 0.178 ± 0.013 | 0.208 ± 0.018 | 0.411 ± 0.025
SRSFWHAIVFLA | 0.122 ± 0.085 | 0.373 ± 0.043 | 0.589 ± 0.015 | 0.542 ± 0.026 | 0.649 ± 0.0067 | 0.0822 ± 0.036 | 0.0959 ± 0.028 | 0.0963 ± 0.018
SRWMWFDWLRRA | 0.417 ± 0.065 | 0.644 ± 0.027 | 0.736 ± 0.028 | 0.686 ± 0.026 | 0.747 ± 0.029 | 0.281 ± 0.012 | 0.295 ± 0.0095 | 0.541 ± 0.0019
SSCFLLFRVVWR | 0.367 ± 0.011 | 0.285 ± 0.01 | 0.321 ± 0.0088 | 0.257 ± 0.03 | 0.436 ± 0.0013 | 0.292 ± 0.005 | 0.244 ± 0.026 | 0.412 ± 0.016
SSFDFVVSLCIY | 0.454 ± 0.041 | 0.501 ± 0.044 | 0.526 ± 0.052 | 0.39 ± 0.021 | 0.49 ± 0.015 | 0.347 ± 0.019 | 0.36 ± 0.013 | 0.476 ± 0.014
STSSVMVFLRMC | 0.281 ± 0.057 | 0.5544 ± 0.0036 | 0.681 ± 0.038 | 0.601 ± 0.013 | 0.708 ± 0.036 | 0.14 ± 0.003 | 0.124 ± 0.01 | 0.161 ± 0.042
SVAGFFLLLLLS | 0.285 ± 0.012 | 0.3561 ± 0.0034 | 0.397 ± 0.0096 | 0.305 ± 0.036 | 0.487 ± 0.02 | 0.191 ± 0.0079 | 0.193 ± 0.029 | 0.338 ± 0.0072
SVECLCLFVACR | 0.259 ± 0.013 | 0.1923 ± 0.00067 | 0.254 ± 0.0049 | 0.193 ± 0.026 | 0.3432 ± 0.0011 | 0.155 ± 0.0075 | 0.184 ± 0.025 | 0.288 ± 0.0032
SVFGVRARFGSV | 0.756 ± 0.014 | 0.766 ± 0.0082 | 0.803 ± 0.013 | 0.709 ± 0.018 | 0.781 ± 0.027 | 0.707 ± 0.046 | 0.724 ± 0.018 | 0.7738 ± 0.0016
SVFVVVVLVFWY | 0.269 ± 0.0066 | 0.221 ± 0.042 | 0.3 ± 0.039 | 0.22 ± 0.029 | 0.33 ± 0.024 | 0.211 ± 0.018 | 0.22 ± 0.029 | 0.316 ± 0.016
SVIAYTKPLWFR | 0.475 ± 0.0065 | 0.4205 ± 0.0039 | 0.3736 ± 0.0027 | 0.351 ± 0.032 | 0.498 ± 0.009 | 0.658 ± 0.02 | 0.361 ± 0.016 | 0.486 ± 0.013
